PMC3064491 (Nature, 2011)

Biological target: T1, human OGT construct (hOGT4.5) containing 4.5 TPR units and the catalytic domain (human, UniProt O15294-3 313-1031)
T1 sequence (looked up): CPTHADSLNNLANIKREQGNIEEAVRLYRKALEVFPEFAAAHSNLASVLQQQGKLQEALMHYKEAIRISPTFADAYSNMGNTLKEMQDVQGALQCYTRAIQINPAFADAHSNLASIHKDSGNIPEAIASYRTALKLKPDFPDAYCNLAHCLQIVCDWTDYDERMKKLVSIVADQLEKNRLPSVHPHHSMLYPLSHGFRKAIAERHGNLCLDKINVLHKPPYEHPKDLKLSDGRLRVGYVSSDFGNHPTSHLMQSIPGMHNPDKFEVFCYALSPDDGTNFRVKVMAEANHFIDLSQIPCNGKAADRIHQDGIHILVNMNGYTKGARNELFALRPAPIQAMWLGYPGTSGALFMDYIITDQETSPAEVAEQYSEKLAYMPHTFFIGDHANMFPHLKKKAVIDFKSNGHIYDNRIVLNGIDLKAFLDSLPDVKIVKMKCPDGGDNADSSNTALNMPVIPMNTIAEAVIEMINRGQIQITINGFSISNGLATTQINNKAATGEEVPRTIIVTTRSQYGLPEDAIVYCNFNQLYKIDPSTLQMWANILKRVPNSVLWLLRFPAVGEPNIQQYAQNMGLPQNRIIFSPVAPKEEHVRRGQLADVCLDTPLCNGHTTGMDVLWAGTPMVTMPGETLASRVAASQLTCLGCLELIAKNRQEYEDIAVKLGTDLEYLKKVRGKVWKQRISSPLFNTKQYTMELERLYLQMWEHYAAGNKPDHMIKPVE
Experiment: crystal structure

YPGGSTPVSSANMM [14 residue-CKII peptide substrate]: binds.
